Measurements published in patent US20150258192A1, “COMPOSITIONS AND METHODS FOR PREVENTING OR TREATING CHRONIC LUNG ALLOGRAFT DYSFUNCTION (CLAD) AND IDIOPATHIC PULMONARY FIBROSIS (IPF)” (priority 2014, published 2015).
No end group written: not given here.

What was measured:
Assay in all cases: Kinase Profiling Assay
Format in all cases: biochemical
Conditions in all cases: peptide 100 μM
[1] = target: CaMKIIγ(h) (Homo sapiens, UniProt Q13555)
Summary of the method: (§1)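 Measured twice per kinase, activity in presence of MK2 inhibitory peptide was calculated against a 100% activity control after radiometric phosphorylation of a cationic substrate, anionic filter capture and scintillation counting; one of 266 human kinases profiled for specificity.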

[2] = target: BTK(R28H)(h) (Homo sapiens, UniProt Q06187, R28H)
Summary of the method: as §1

[3] = target: EGFR(L861Q)(h) (Homo sapiens, UniProt P00533, L861Q)
Summary of the method: as §1

[4] = target: T1, Met(D1246H)(h) (Homo sapiens, UniProt P08581, D1228H)
T1 construct: purchased Millipore
Summary of the method: as §1

[5] = target: T2, HIPK1(h) (Homo sapiens, UniProt Q86Z02)
T2 construct: purchased Millipore
Summary of the method: as §1

[6] = target: Pim-3(h) (Homo sapiens, UniProt Q86V86)
Summary of the method: as §1

[7] = target: PDGFRα(h) (Homo sapiens, UniProt P16234)
Summary of the method: as §1

[8] = target: T3, MST3(h) (Homo sapiens, UniProt Q9Y6E0)
T3 construct: purchased Millipore
Summary of the method: as §1

[9] = target: T4, IR(h) (Homo sapiens, UniProt P06213)
T4 construct: purchased Millipore
Summary of the method: as §1

[10] = target: CDK3/cyclinE(h) (Homo sapiens, UniProt Q00526)
Summary of the method: as §1

[11] = target: T5, SGK2(h) (Homo sapiens, UniProt Q9HBY8)
T5 construct: purchased Millipore
T5 sequence (Q9HBY8 1-367): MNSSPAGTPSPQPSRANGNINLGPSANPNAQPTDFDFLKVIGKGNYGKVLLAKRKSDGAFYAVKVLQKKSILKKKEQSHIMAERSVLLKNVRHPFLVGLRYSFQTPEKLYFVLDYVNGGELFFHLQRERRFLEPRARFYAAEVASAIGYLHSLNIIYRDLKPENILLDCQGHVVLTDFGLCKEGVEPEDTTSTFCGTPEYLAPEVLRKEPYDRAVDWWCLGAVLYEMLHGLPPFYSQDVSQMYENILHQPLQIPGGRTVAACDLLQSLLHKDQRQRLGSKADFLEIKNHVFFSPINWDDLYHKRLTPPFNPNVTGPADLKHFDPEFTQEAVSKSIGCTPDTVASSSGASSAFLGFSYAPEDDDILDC
Summary of the method: as §1

[12] = target: Fyn(h) (Homo sapiens, UniProt P06241)
Summary of the method: as §1

[13] = target: T6, KDR(h) (Homo sapiens, UniProt P35968)
T6 construct: purchased Millipore
Summary of the method: as §1

[14] = target: Flt1(h) (Homo sapiens, UniProt P17948)
Summary of the method: as §1

[15] = target: T7, NEK7(h) (Homo sapiens, UniProt Q8TDX7)
T7 construct: purchased Millipore
Summary of the method: as §1

[16] = target: T8, MST2(h) (Homo sapiens, UniProt Q13188)
T8 construct: purchased Millipore
T8 sequence (Q13188 1-491): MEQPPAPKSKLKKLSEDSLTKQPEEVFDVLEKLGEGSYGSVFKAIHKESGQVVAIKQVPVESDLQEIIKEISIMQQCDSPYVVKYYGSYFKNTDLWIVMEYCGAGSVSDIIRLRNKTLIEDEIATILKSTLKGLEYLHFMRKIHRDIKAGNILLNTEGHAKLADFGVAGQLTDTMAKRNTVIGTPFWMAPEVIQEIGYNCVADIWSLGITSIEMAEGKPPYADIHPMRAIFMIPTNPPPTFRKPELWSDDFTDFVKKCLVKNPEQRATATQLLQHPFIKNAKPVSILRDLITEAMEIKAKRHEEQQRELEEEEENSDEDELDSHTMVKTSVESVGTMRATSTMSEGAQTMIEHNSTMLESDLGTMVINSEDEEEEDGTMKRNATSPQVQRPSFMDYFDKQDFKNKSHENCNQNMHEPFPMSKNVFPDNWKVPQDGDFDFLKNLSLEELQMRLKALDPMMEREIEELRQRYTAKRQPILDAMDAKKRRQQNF
Summary of the method: as §1

[17] = target: Ron(h) (Homo sapiens, UniProt Q04912)
Summary of the method: as §1

[18] = target: T9, SIK(h) (Homo sapiens, UniProt P57059)
T9 construct: purchased Millipore
Summary of the method: as §1

[19] = target: T10, PRAK(h) (Homo sapiens, UniProt Q8IW41)
T10 sequence (Q8IW41 1-473): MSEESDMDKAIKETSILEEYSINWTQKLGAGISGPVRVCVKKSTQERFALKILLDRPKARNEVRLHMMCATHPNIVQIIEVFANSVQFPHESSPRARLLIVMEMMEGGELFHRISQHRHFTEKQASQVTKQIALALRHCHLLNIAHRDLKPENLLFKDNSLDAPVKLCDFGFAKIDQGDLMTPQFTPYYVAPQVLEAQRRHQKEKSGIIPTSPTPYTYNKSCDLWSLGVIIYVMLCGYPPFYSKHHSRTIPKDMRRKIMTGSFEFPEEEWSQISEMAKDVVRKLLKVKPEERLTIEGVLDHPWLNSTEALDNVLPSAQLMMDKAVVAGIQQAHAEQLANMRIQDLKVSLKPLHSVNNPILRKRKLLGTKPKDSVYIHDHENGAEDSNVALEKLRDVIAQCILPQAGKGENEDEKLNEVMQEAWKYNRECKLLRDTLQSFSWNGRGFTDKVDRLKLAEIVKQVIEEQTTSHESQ
Summary of the method: as §1

[20] = target: Plk3(h) (Homo sapiens, UniProt Q9H4B4)
Summary of the method: as §1

[21] = target: cKit(V560G)(h) (Homo sapiens, UniProt P10721, V560G)
Summary of the method: as §1

Sequence of CaMKIIγ(h) (Q13555 whole entry): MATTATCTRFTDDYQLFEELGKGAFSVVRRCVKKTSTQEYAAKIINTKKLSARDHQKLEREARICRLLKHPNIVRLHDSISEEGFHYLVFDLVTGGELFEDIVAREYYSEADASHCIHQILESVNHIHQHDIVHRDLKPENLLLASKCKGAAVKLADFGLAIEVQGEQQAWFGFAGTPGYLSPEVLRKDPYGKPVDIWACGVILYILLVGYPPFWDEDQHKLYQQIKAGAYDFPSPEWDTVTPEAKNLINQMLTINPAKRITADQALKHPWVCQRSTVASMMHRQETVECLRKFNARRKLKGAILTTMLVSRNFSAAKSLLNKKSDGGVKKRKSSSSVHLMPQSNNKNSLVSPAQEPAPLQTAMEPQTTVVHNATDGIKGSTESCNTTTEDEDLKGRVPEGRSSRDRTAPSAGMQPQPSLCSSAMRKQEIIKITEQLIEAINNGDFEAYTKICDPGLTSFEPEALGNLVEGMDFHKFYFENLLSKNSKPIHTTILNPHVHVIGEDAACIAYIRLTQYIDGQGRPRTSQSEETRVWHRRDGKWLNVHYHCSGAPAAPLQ
Sequence of BTK(R28H)(h) (Q06187 whole entry R28H): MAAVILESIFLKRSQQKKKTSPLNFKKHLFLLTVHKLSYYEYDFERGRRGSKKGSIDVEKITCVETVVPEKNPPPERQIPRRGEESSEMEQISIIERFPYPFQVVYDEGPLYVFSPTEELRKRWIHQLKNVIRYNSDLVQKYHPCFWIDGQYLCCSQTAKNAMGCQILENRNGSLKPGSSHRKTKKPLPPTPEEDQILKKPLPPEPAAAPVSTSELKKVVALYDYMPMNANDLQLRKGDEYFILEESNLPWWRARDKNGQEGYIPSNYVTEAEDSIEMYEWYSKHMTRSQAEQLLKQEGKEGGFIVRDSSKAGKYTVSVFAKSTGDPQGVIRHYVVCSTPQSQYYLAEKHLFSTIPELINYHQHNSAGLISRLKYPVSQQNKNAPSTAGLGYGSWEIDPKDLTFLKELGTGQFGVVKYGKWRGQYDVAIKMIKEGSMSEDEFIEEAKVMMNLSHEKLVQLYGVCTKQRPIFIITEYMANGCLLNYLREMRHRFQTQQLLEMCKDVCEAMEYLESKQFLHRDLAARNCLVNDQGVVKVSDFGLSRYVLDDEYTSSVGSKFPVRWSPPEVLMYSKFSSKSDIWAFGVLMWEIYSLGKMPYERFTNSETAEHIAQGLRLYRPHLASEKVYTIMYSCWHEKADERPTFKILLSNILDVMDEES
T7 sequence (Q8TDX7 whole entry): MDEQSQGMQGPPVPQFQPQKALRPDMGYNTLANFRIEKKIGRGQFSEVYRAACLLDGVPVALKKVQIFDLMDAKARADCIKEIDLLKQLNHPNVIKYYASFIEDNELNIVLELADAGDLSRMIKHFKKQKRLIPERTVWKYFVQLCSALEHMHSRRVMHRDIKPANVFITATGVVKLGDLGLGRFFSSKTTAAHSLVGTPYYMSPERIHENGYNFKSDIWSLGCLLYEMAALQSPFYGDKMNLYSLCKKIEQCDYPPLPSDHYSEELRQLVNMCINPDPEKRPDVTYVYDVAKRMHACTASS
Sequence of PDGFRα(h) (P16234 24-1089): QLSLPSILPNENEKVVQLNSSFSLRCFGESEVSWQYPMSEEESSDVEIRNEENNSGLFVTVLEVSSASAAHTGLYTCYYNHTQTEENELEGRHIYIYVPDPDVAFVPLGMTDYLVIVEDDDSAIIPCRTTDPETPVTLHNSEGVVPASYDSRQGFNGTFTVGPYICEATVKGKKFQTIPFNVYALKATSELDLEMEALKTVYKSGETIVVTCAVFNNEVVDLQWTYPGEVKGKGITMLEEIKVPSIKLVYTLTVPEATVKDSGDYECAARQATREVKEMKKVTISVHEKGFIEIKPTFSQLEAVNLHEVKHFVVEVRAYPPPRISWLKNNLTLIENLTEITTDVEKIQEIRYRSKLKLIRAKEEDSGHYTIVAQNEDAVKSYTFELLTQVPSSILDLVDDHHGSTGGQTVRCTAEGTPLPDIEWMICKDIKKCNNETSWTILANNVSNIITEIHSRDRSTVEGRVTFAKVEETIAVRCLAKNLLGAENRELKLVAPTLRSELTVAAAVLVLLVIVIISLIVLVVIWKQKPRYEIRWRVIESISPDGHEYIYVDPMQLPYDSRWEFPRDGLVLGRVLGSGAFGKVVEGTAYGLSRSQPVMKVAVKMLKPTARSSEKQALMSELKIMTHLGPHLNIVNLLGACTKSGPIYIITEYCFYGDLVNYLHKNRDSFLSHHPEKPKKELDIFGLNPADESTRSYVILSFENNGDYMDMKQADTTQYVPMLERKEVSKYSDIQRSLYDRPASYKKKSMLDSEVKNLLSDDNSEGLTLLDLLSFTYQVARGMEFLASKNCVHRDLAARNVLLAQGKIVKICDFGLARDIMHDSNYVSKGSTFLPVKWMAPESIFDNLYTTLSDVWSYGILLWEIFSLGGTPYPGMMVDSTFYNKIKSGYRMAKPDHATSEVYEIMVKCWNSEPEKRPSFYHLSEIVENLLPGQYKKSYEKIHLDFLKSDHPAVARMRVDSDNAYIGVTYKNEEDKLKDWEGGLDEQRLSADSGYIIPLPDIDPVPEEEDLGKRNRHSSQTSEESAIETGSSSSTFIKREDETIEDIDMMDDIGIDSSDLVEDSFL
Sequence of Plk3(h) (Q9H4B4 whole entry): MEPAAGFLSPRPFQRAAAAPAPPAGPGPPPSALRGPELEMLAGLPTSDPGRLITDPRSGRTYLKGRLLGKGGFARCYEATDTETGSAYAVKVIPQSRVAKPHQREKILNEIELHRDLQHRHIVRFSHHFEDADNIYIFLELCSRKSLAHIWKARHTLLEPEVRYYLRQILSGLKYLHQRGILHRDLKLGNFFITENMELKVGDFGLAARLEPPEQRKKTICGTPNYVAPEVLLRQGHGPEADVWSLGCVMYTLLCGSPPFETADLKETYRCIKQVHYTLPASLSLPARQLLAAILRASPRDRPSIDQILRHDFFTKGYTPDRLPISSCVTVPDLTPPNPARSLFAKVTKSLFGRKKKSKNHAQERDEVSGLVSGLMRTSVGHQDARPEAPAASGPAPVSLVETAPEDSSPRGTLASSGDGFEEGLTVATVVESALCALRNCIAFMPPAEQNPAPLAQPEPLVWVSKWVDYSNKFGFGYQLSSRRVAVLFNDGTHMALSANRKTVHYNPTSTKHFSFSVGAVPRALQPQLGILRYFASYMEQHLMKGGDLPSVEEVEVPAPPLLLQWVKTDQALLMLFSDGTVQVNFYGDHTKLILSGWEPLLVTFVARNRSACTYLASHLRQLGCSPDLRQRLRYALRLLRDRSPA
T3 sequence (Q9Y6E0 whole entry): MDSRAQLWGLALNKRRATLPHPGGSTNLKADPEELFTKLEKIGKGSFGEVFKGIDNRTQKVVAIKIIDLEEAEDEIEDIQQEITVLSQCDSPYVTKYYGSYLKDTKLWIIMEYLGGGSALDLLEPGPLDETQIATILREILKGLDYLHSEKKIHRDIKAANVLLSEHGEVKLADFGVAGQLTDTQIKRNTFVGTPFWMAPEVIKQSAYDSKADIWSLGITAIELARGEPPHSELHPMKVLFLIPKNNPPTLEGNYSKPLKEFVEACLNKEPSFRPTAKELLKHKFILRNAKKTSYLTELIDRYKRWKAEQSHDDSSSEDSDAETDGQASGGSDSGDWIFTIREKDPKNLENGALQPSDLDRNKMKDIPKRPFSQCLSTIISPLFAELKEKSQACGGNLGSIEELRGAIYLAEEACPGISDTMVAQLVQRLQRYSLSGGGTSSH
T9 sequence (P57059 whole entry): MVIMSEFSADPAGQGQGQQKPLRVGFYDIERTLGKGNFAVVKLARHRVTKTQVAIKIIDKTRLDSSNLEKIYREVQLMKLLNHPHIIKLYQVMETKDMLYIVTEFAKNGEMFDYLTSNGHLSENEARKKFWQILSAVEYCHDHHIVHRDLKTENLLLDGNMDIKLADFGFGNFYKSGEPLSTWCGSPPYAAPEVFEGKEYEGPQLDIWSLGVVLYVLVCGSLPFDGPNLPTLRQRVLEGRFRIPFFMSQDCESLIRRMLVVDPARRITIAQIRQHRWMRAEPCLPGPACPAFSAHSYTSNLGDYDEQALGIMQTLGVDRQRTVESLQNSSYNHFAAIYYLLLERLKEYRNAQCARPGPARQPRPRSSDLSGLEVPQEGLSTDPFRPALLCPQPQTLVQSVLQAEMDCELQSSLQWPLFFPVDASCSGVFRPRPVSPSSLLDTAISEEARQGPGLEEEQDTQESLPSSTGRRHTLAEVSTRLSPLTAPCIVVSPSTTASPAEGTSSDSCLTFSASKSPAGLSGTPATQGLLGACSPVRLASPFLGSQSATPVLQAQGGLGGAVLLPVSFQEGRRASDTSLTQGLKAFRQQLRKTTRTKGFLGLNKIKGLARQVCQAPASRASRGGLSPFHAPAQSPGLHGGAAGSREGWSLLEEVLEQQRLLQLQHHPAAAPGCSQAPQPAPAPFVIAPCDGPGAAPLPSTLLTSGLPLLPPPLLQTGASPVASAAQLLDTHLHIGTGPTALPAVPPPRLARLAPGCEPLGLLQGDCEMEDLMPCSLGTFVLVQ

Sequence | % activity [1] [%] | % activity [2] [%] | % activity [3] [%] | % activity [4] [%] | % activity [5] [%] | % activity [6] [%] | % activity [7] [%] | % activity [8] [%] | % activity [9] [%] | % activity [10] [%] | % activity [11] [%] | % activity [12] [%] | % activity [13] [%] | % activity [14] [%] | % activity [15] [%] | % activity [16] [%] | % activity [17] [%] | % activity [18] [%] | % activity [19] [%] | % activity [20] [%] | further results
FAKLAARLYRKALARQLGVAA [MMI-0300] | 5 | 74 | 25 | 125 | 74 | 80 | 65 | 45 | 96 | 94 | 56 | 74 | 101 | 69 | 84 | 19 | 93 | 66 | 128 | 127 | –
HRRIKAWLKKIKALARQLGVAA (Mammal) [MMI-0500] | 3 | 10 | 15 | 150 | 47 | 37 | 40 | 4 | 95 | 8 | -1 | 83 | 15 | 27 | 89 | 2 | 46 | 40 | 95 | 122 | % activity [21]: 198%
KAFAKLAARLYRKALARQLGVAA [MMI-0400] | 3 | 24 | 22 | 68 | 91 | 80 | 40 | 36 | 85 | 92 | 98 | 54 | 94 | 48 | 87 | 11 | 79 | 68 | 118 | 129 | % activity [21]: 124%
YARAAARQARAKALARQLGVAA [MMI-0100] | – | 91 | 53 | 99 | 94 | – | – | – | – | – | – | – | 100 | – | – | 98 | – | – | 159 | – | % activity [21]: 94%
YARAAARQARAKALNRQLGVA (Mammal) [MMI-0200] | 94 | – | 74 | 139 | – | 94 | 108 | 95 | 90 | – | – | 75 | 110 | 96 | 96 | – | 120 | – | – | – | –
